US20250084127

Experiments:
[1] = biological target: T1, crude peptide 1 (EG-surugamide B precursor) (not fully specified)
T1 chain: IAIVKIFL

[2] = biological target: peptide having a polyethylene glycol (PEG) chain therein (EG at the C terminal)
[3] = biological target: seco-desprenylagaramide C-EG
[4] = biological target: tyrocidine A precursor having EG as a leaving group

B1: recombinant WolJ (protein)
chain: MNHKVHHHHHHMSAEAKGRGTTISLPLDRLAKEHSVVGGQLAVHHQGTTHTWAFGEEEHDSGRPVSVGTAFALGSTTKALTATSVLQLVSDGDLDLDSPVKTWIEERGAAADHPALNATLRQLLSHTAGLPSDHFDEEAPSLRRWLAGFLTSGDERARASWPTPGSFSYSNIGYAVAGRAVEAATGLPWWQAVRDYLLTPLGTGIGLLPGAPQDGRPLTAAPGHTAHTTPDGRTVVHVVQSTTDAGSAPSGGLAGSAADLVRFARLHLEEPGDLDRSAVADPSVLREMAQPVTGAEPFGLADGWGLGLGHFGPAGRHWLGHDGTLDGSTCHLRIEPRQGTVVALTTNTSSGLALWDSVVEELRECGLDIGLHAPQPPLAAPAATFAECTGTYRNGDLAVTVGIEDQHIVLGLPNGQRDSVAPHTGLFFSGRPGNASLFLGRFVKDVATGEIRALQYSGRTLTREALTARN
peptide cyclization (LC-MS of the reaction mixture) (seco-wollamide B1-EG): the substrate disappeared by an enzymatic reaction to generate a cyclized product (wollamide B1)

B2: recombinant SurE (protein)
chain: MGSSHHHHHHSSGLVPRGSHMGAEGAERDAVGALFEELVREHRVTGAQLSVYRDGALSEYATGLASVRTGEPVTPRTGFPFGSVTKFLTAELVMQFVCDGDLDLDDPLAGLLPDLGRAAGPPLGTATVRQLLSHTAGVVDSIEYDEMRGPSYRRFAAACARQPALFPPGLAFSYSNTGYCLLGAVIEAASGMDWWTAMDSCLLRPLGIEPAFLHDPRPGQGGAARPVAEGHALRAGGERAEHVDHMASLSLAAAGGLVGSATDLVTAARPHLADRKTFAQHDLLPEDAVLAMRTCVPDAEPFGLADGWGLGLMRHGTGDGAWYGHDGAVGGASCNLRIHPDRSLALALTANSTAGPKLWEALVARLPEAGLDVGHYALPVPDSAPLAPDAGHLGTYANGDLELMVTHDAAGDLFLTRESYSDYRLSLHEDDLFVARSGEPGALPITGRFVREHPAGPVALLQYGGRAMHRL
peptide cyclization (LC-MS of the reaction mixture) [1]: a substrate (crude peptide 1, EG-SB precursor, m/z 960.5 [+H]) disappeared by the action of SurE to generate a cyclic peptide (surugamide B (SB), m/z 898.5 [+H])
peptide cyclization (reverse-phase HPLC / LC-MS) [2]: SurE efficiently circularized also a peptide having a PEG chain therein

B3: SurE (G235L) (protein)
chain: MGSSHHHHHHSSGLVPRGSHMGAEGAERDAVGALFEELVREHRVTGAQLSVYRDGALSEYATGLASVRTGEPVTPRTGFPFGSVTKFLTAELVMQFVCDGDLDLDDPLAGLLPDLGRAAGPPLGTATVRQLLSHTAGVVDSIEYDEMRGPSYRRFAAACARQPALFPPGLAFSYSNTGYCLLGAVIEAASGMDWWTAMDSCLLRPLGIEPAFLHDPRPGQGGAARPVAEGHALRAGGERAEHVDHMASLSLAAALGLVGSATDLVTAARPHLADRKTFAQHDLLPEDAVLAMRTCVPDAEPFGLADGWGLGLMRHGTGDGAWYGHDGAVGGASCNLRIHPDRSLALALTANSTAGPKLWEALVARLPEAGLDVGHYALPVPDSAPLAPDAGHLGTYANGDLELMVTHDAAGDLFLTRESYSDYRLSLHEDDLFVARSGEPGALPITGRFVREHPAGPVALLQYGGRAMHRL
peptide cyclization (LC-MS of the reaction mixture) [3]: the substrate disappeared by an enzymatic reaction to generate a cyclized product (desprenylagaramide C)

B4: recombinant TycC-TE (protein)
chain: MGSSHHHHHHSSGLVPRGSHMGGSHKRFESRYGTAILLNQETARNVFCFTPIGAQSVYYQKLAAEIQGVSLYSFDFIQDDNRMEQYIAAITAIDPSGPYTLMGYSSGGNLAFEVAKELEERGYGVTDIILFDSYWKDKAIERTVAETENDIAQLFAEIGENTEMFNMTQEDFQLYAANEFVKQSFVRKTVSYVMFHNNLVNTGMTTAAIHLIQSELEADEEAPVAAKWNESAWANATQRLLTYSGHGIHSRMLAGDYASQNASILQNILQELFILKGSRSHHHHHH
peptide cyclization (LC-MS of the reaction product) [4]: In an active TycC-TE containing system, it was confirmed that a cyclic peptide, i.e., tyrocidine A, and a small amount of substrate hydrolysate were generated
